Measured values reported in patent publication US20120121504A1 (UNITED STATES OF AMERICA AS REPRESENTED BY THE SECRETARY …, published 2012).
Ends that are not written are not given here.

Legend:
[1] = molecular target: T1, human CD52 (human, UniProt P31358 25-36, ends and bridges not checked); test: flow cytometry, MFI ratio grade (sample over background), third party B cells
T1 construct: whole, on cells; also called CD52 antigen
T1 chain (looked up): GQNDTSQTSSPS

[2] = molecular target: T1, human CD52; test: flow cytometry, MFI ratio grade (sample over background), allogeneic B cells

MFI ratio (sample over background) [1]: > 100 ratio
MFI ratio (sample over background) [2]: > 100 ratio
B1: alemtuzumab (humanized anti-human CD52 mAb with human IgG1 kappa constant domains) (antibody, V domains shown)
VH: QVQLQESGPGLVRPSQTLSLTCTVSGFTFTDFYMNWVRQPPGRGLEWIGFIRDKAKGYTTEYNPSVKGRVTMLVDTSKNQFSLRLSSVTAADTAVYYCAREGHTAAPFDYWGQGSLVTVSS
VL: DIQMTQSPSSLSASVGDRVTITCKASQNIDKYLNWYQQKPGKAPKLLIYNTNNLQTGVPSRFSGSGSGTDFTFTISSLQPEDIATYYCLQHISRPRTFGQGTKVEIKR
